Measurements published in FireProtDB (doi:10.1006/jmbi.1995.0616).

B1: Subtilisin-chymotrypsin inhibitor-2A, P01053 (parent)
chain: MSSVEKKPEGVNTGAGDRHNLKTEWPELVGKSVEEAKKVILQDKPEAQIIVLPVGTIVTMEYRIDRVRLFVDKLDNIAQVPRVG

Variants of: B1
Details: Hordeum vulgare; pH 6.25; 25 °C; GdnHCl; Fluorescence; MES 50 mM; reversible: yes; structure 2CI2; whole UniProt chain shown

Variant | ddG of mutation (higher = less stable) [kcal/mol] | denaturant m value [kcal/mol/M] | denaturant midpoint (higher = more stable) [M] | unfolding free energy [kcal/mol]
R63A | 1.02 | 1.78 | 3.7 | 6.58
D72A | 3.14 | 1.99 | 2.24 | 4.46
E61A | 1.12 | 1.78 | 3.64 | 6.48
K73N | 1.21 | 1.6 | 4 | 6.39
R63A D65A | 2.46 | 1.53 | 3.37 | 5.14
P26A |  | 3.46 | 3.19 | 
D65A | 1.02 | 1.83 | 3.59 | 6.58
F70L | 1.92 | 1.95 | 2.91 | 5.68
F70V | 1.41 | 2.24 | 2.77 | 6.19
F70A | 3.21 | 2.17 | 2.02 | 4.39
P81A | 3.5 | 1.8 | 2.28 | 4.1
